This is an account of results in article PMC4075491, “Crystallography based structure elucidation of the complex of C-terminal fragment of Aβ polypeptide of Alzheimer’s disease with phospholipase A2” (BMC Genomics, 2014).

This assay concerns the target T1, phospholipase A2 (PLA2) from cobra venom (cobra, UniProt P60045 8-126).
T1 construct: source: purified to homogeneity from cobra venom
As to the kind of experiment: enzyme kinetic studies (competitive); kinetic studies; the peptide binds to PLA2 in a competitive manner; no conditions told. The note with it: both partners purified.

T1 sequence (P60045 8-126): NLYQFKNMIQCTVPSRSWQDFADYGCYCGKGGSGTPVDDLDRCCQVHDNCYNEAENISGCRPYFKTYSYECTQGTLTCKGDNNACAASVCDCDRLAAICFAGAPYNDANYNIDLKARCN

B1: Aβ(36-42) C-terminal heptapeptide Val-Gly-Gly-Val-Val-Ile-Ala (peptide)
peptide: VGGVVIA
notes: C-terminal heptapeptide of the Aβ polypeptide of Alzheimer's disease, residues 36-42; numbers count on: the Aβ peptide; also called VGGVVIA; Aβ_(36-42) peptide
Regarding B1, affinity was put at a Ki of 520 nM.
